Values of other authors as cited in paper PMC2749146.

Test system: Cys
Experiment: UV-vis
Conditions: Reduced; the protein unfolds below pH 3, so deprotonation and unfolding overlap.

DsbA (EcDsbA) (Escherichia coli)
pKa: ∼3.5
